The values that follow come from US20250002610A1 (Genmab, published 2025).

Experiment [1] deals with T1, human DR4 (Death Receptor 4), cell surface expressed on human tumor cell lines (human, UniProt O00220 24-468).
T1 construct: also called TNFRSF10A; TRAIL-R1
T1 sequence: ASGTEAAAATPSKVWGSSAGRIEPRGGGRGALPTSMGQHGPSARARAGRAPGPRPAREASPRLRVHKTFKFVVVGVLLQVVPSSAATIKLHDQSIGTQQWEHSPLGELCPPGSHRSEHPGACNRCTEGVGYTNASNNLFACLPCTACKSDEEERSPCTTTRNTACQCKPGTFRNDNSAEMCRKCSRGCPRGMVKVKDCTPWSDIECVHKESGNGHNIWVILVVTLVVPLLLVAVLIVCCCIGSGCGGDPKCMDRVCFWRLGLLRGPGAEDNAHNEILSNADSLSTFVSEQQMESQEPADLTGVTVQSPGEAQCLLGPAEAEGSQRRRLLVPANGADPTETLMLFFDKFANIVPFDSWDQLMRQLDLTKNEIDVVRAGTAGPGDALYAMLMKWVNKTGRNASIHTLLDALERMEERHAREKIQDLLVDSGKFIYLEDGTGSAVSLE
The experiment in a line: flow cytometry, A549 cells, n = 2. For orientation: Flow cytometry measures light scatter and fluorescence of single cells or particles in a stream.

Experiment [2] deals with T1, human DR4 (Death Receptor 4), cell …. Put plainly: flow cytometry, HCT-116 cells, average ± SEM.
Experiment [3] shares this target. The experiment in a line: flow cytometry, PANC-1 cells, average ± SEM.
Experiment [4] has the same target. Put plainly: flow cytometry, HCT-15 cells, n = 2.
The target is the same in experiment [5]. The experiment in a line: flow cytometry, MDA-MB-231 cells, N = 2.
For experiment [6] the target is unchanged. Put plainly: flow cytometry, MDA-MB-231 cells, average ± SEM.
The target is the same in experiment [7]. The experiment in a line: flow cytometry, MDA-MB-231 cells, average ± SEM. This is another data set of the same source.

B1: BisG1-b12-FERL/DR4-FERR (bispecific antibody, human IgG1, kappa, lambda)
heavy 1: QVQLVQSGAEVKKPGASVKVSCQASGYRFSNFVIHWVRQAPGQRFEWMGWINPYNGNKEFSAKFQDRVTFTADTSANTAYMELRSLRSADTAVYYCARVGPYSWDDSPQDNYYMDVWGKGTTVIVSSASTKGPSVFPLAPSSKSTSGGTAALGCLVKDYFPEPVTVSWNSGALTSGVHTFPAVLQSSGLYSLSSVVTVPSSSLGTQTYICNVNHKPSNTKVDKRVEPKSCDKTHTCPPCPAPEFERGPSVFLFPPKPKDTLMISRTPEVTCVVVDVSHEDPEVKFNWYVDGVEVHNAKTKPREEQYNSTYRVVSVLTVLHQDWLNGKEYKCKVSNKALPAPIEKTISKAKGQPREPQVYTLPPSREEMTKNQVSLTCLVKGFYPSDIAVEWESNGQPENNYKTTPPVLDSDGSFLLYSKLTVDKSRWQQGNVFSCSVMHEALHNHYTQKSLSLSPG
light 1: EIVLTQSPGTLSLSPGERATFSCRSSHSIRSRRVAWYQHKPGQAPRLVIHGVSNRASGISDRFSGSGSGTDFTLTITRVEPEDFALYYCQVYGASSYTFGQGTKLERKRTVAAPSVFIFPPSDEQLKSGTASVVCLLNNFYPREAKVQWKVDNALQSGNSQESVTEQDSKDSTYSLSSTLTLSKADYEKHKVYACEVTHQGLSSPVTKSFNRGEC
heavy 2: QVQLQESGPGLVKPSGTLSLTCAVSGGSISSYSWWSWIRQPPGKGLEWIGELYHSGSTNYNPSLKSRVTISVDKSKNQFSLKLRSVTAADTAVYYCVRGVATIDYWGQGTLVTVSSASTKGPSVFPLAPSSKSTSGGTAALGCLVKDYFPEPVTVSWNSGALTSGVHTFPAVLQSSGLYSLSSVVTVPSSSLGTQTYICNVNHKPSNTKVDKRVEPKSCDKTHTCPPCPAPEFERGPSVFLFPPKPKDTLMISRTPEVTCVVVDVSHEDPEVKFNWYVDGVEVHNAKTKPREEQYNSTYRVVSVLTVLHQDWLNGKEYKCKVSNKALPAPIEKTISKAKGQPREPQVYTLPPSREEMTKNQVSLTCLVKGFYPSDIAVEWESNGQPENNYKTTPPVLDSDGSFFLYSRLTVDKSRWQQGNVFSCSVMHEALHNHYTQKSLSLSPG
light 2: QSALTQPPSASGSPGQSVTISCTGTSSDVGGYNFVSWYQQDPGKAPKLLIYEVTKRPSGVPDRFSGSKSGNTASLTVSGLQAEDEADYYCSSYAGSNNVMFGGGTKLTVLGQPKAAPSVTLFPPSSEELQANKATLVCLISDFYPGAVTVAWKADSSPVKAGVETTTPSKQSNNKYAASSYLSLTPEQWKSHRSYSCQVTHEGSTVEKTVAPTECS
notes: Fab-arm exchange of IgG1-b12-FERL and IgG1-DR4-FERR; also called bsIgG1-ctrl-FERLxDR4-FERR
Broadly, the EC50 is the concentration that produces a half-maximal response. B1: the EC50 was 0.68 µg/mL in experiment [1]; 0.57 µg/mL in experiment [2]; 1.63 µg/mL in experiment [3]; 0.57 µg/mL in experiment [4]; 0.95 µg/mL in experiment [5]; 0.67 µg/mL in experiment [6]. This molecule yielded an EC50 in experiment [7] of 1.02 µg/mL. Further, the “Max MFI (at 90 µg/mL)” value in experiment [5] and in experiment [6] was 7840 MFI in each case.
